{"source": "the DeepSol protein solubility set"}
{"experiment": "soluble on expression in E. coli; label from the status in PepcDB or PDB records"}
{"sequence": "ESICLIGHSLGGDLARYFASEFEEVKKLILLDGGYLDLDKILPLDTELEETKNYIKSQIVSDLDVLTSKEKSEAKHWSENMEKAVRQSYHWNVEYNRYELAINYENIEAILRLRRKIQAFKREVGDTLFISPRYPNEATWREEALKELPDYFDTIFLENFGHELYTQAPKEIASLMNEWLAYFL", "soluble on expression in E. coli": "not soluble"}
{"sequence": "VIRPKTLGQKHYVDAIDTNTIVFGLGPAGSGKTYLAMAKAVQALQSKQVSRIILTRPAVEAGEKLGFLPGTLNEKIDPYLRPLHDALRDMVEPEVIPKLMEAGIVEVAPLAYMRGRTLNDAFVILDEAQNTTPAQMKMFLTRLGFGSKMVVTGDITQVDLPGGQKSGLRLVRHILRGVDDVHFSELTSSDVVRHQLVGHIVDAYEDYEEREARELKRKRQETRP", "soluble on expression in E. coli": "soluble"}
{"sequence": "MPPADGTSQWLRKTVDSAAVILFSKTTCPYCKKVKDVLAEAKIKHATIELDQLSNGSAIQKCLASFSKIETVPQMFVRGKFIGDSQTVLKYYSNDELAGIVNESKYDYDLIVIGGGSGGLAAGKEAAKYGAKTAVLDYVEPTPIGTTWGLGGTCVNVGCIPKKLMHQAGLLSHALEDAEHFGWSLDRSKISHNWSTMVEGVQSHIGSLNWGYKVALRDNQVTYLNAKGRLISPHEVQITDKNQKVSTITGNKIILATGERPKYPEIPGAVEYGITSDDLFSLPYFPGKTLVIGASYVALECAGFLASLGGDVTVMVRSILLRGFDQQMAEKVGDYMENHGVKFAKLCVPDEIKQLKVVDTENNKPGLLLVKGHYTDGKKFEEEFETVIFAVGREPQLSKVLCETVGVKLDKNGRVVCTDDEQTTVSNVYAIGDINAGKPQLTPVAIQAGRYLARRLFAGATELTDYSNVATTVFTPLEYGACGLSEEDAIEKYGDKDIEVYHSNFKPLEWTVAHREDNVCYMKLVCRKSDNMRVLGLHVLGPNAGEITQGYAVAIKMGATKADFDRTIGIHPTCSETFTTLHVTKKSGVSPIVSGCCG", "soluble on expression in E. coli": "soluble"}
{"sequence": "MLTQEQIDIIREGPDYFLESIWFRIGQLYGLSPGQIDHDSFEERKNDLFFLLGKLLDEGQIKIGNHKGNFISGPTPALVEMFRSSFPDSDEKAQAIWFITECPGGIVWVLKGQGEKGQDVYKWWLFKDEK", "soluble on expression in E. coli": "not soluble"}
{"sequence": "MVHYYRLSLKSRQKAPKIVNSKYNSILNIALKNFRLCKKHKTKKPVQILALLQEIIPKSYFGTTTNLKRFYKVVEKILTQSSFECIHLSVLHKCYDYDAIPWLQNVEPNLRPKLLLKHNLFLLDNIVKPIIAFYYKPIKTLNGHEIKFIRKEEYISFESKVFHKLKKMKYLVEVQDEVKPRGVLNIIPKQDNFRAIVSIFPDSARKPFFKLLTSKIYKVLEEKYKTSGSLYTCWSEFTQKTQGQIYGIKVDIRDAYGNVKIPVLCKLIQSIPTHLLDSEKKNFIVDHISNQFVAFRRKIYKWNHGLLQGDPLSGCLCELYMAFMDRLYFSNLDKDAFIHRTVDDYFFCSPHPHKVYDFELLIKGVYQVNPTKTRTNLPTHRHPQDEIPYCGKIFNLTTRQVRTLYKLPPNYEIRHKFKLWNFNNQISDDNPARFLQKAMDFPFICNSFTKFEFNTVFNDQRTVFANFYDAMICVAYKFDAAMMALRTSFLVNDFGFIWLVLSSTVRAYASRAFKKIVTYKGGKYRKVTFQCLKSIAWRAFLAVLKRRTEIYKGLIDRIKSREKLTMKFHDGEVDASYFCKLPEKFRFVKINRKASI", "soluble on expression in E. coli": "soluble"}
{"sequence": "TKAHRDAARRIAAESFVLLKNDNVTLRPGTPAEPLLPFNPKGNIAVIGPLADSRTNMPGTWSVAAVLDRCPSLVEGLKEMTAGKANILYAKGSNLISDASYEERATMFGRSLNRDNRTDEQLLNEALTVANQSDIIIAALGESSEMSGESSSRTDLNIPDVQQNLLKELLKTGKPVVLVLFTGRPLTLTWEQEHVPAILNVWFGGSEAAYAIGDALFGYVNPGGKLTMSFPKNVGQIPLYYAHKNTGRPLAQGKWFEKFRSNYLDVDNEPLYPFGYGLSYTTFSYGDIDLSR", "soluble on expression in E. coli": "not soluble"}
{"sequence": "MVPESHPRYKSLLNRDRIVEAFESGVLAKGGMIAHGRGETFDYLIGESTTDAALNSIKVSAALLVLAENPVISVNGNSVALAKDEFVELAKELNGKIEVNLFYRTTEREEKIKDVFESDINGGIVLLGIDNADKQIPGIDHLRGKVSESGIYTSDVVLVPLEDGDRAEALVKMGKTVIAIDLNPLSRTARKSTISIIDELTRCIPLITEYVREYKKMDRAELLKIVENYDNEENLRNILNLISKRLTSVDLEHHHHHH", "soluble on expression in E. coli": "soluble"}
{"sequence": "MSAVGEFPGSLGAKVFRLNGGLPGAKVGKNTGTSVKFGESSTQALIRAAYRQVFGRDLYEGQRLSVAEIQLENGDISVREFIKRLAKSELFLKLYWAPHYVCKAIEYMHRRLLGRPTYGRQEMNQYFDIASKQGFYAVVEAMIDSKEYSDAFGEDTVPYERYLEHHHHHH", "soluble on expression in E. coli": "soluble"}
{"sequence": "MKAVGFLLLLTILTLAYAKKSGDVTELQIGVKYKPQKCDLQAHKGDKIKVHYRGKLTDGTVFDSSFERGDPIEFELGTGQVIPGWDQGLLGACVGEKRKLKIPSKLGYGDNGSPPKIPGGATLIFDTELVAVNGEPSSEAKSKNEL", "soluble on expression in E. coli": "soluble"}
{"sequence": "MPMFAWKGKRDKSMKVSVVIPVHNEASTLSKVLAEVKKLEPYEIIIVDNGSTDGTKEIALQHHCRVIYYNHSLGNDVGRAIGAREAKGEIVLFLDGDIVMKSEELYPFIKGIQQGHQIVLNNLTWSVYLKVRPHYTTVGKYMLNRYLNKKEFVVGSLIAIPHAISREVIEKLGWWNLADPALFQAMAMSRGVDISDMASVDVIYTNKVRPVHTGTSPDSPYPKATSRIMGDHLRALQYITETYGKRGGFSEGNRDREFIGKYKPVVLKKEKAKYSAIIPVSEEKTTIRSVIQEVKKAGVDEIIIVANGADIETIKQVNLENVIVVEVTKTLGNNVARAIGAMHATAEICLFVDGDYAIPAKKLVPFLRAIEDGSDMALNDLQCLLDIFHPADPISMGKYFVNLVAKRPDLWNNSLTAVPHAIRKKVIEKIGYDSLIIPPLAQMKAILEGFSITTVEFVDVIKTNRVRPEQHEFVNGRISAFDRIFGDQLEAIAYLLQHTDERGGFTDGDRDREIIQQLRREEENTNEY", "soluble on expression in E. coli": "not soluble"}
{"sequence": "MADTVKLFPENLVTYKLLGEPDGPHYAHYDLVGGRLVVSKKCVSEAPVKKDAISV", "soluble on expression in E. coli": "not soluble"}
{"sequence": "MNYKADIGVFGGSGFYSFLENVEEIEMETPYGKPSDKIAIATYEGKRIAFLPRHGKNHQFPPHMIPYRANLYAMKKLGVKKILAPTSSGSLRADIKPGDFVICDQFVDRTTGRKDTFYDGPVTKHISSAHPYCPELRKIAIQVGKDLGITTHEKGTVVVIQGPRFSTVAESRWFSKMGWDVINMTQYPEVYLARELGICYANIALITDYDAGLEGRDDIEPVTEEAVLKVFAENNEKVKNMLFEVIKRIDLENSNCTCCNVDLSGLDL", "soluble on expression in E. coli": "soluble"}
{"sequence": "MGSDKIHHHHHHMHFVITGSLGHIGKPLAIQLSKEGHAVTVVSSNTERIKEIESIGAKAAIGSVEDPGFLTETFRGADAVFTMVPPNMNAADWKAWIAGIGKNYVAAIKESGVKHVVNLSSIGAHMVDKCGPVSGLSQVELAMDEMKGVNVHHLRAGYFYTNFLNSIGQIKNQGIITGNYMPDLKMVLVHPADIADIAARALKDESYLGRGFSYIASDEKTPAEIVTILGKATGRMDLKWVERTDKEEYDDLIAIGLPEEIAKNYTEMGAALRSGDMNADYFRNRPVMAGWRTFDSFMPEFIATYNA", "soluble on expression in E. coli": "not soluble"}
{"sequence": "MKKFDVAIVGGGLAGLTASIYLAKAGRKVIVLEKSSRFGGRGMTINKNGICMNLGAHALYRGGAAFLTFNELGMNLPGGIPSTKAHGIWKGDIFTIPTDFRSILSTPLLSWSAKVQFSRLMILLGNLDVGEVPKMSLTTWAEHEIKDPMVRNIFYALCRTTTYTFAPTIQLASSVLKQIQLSIKEGVFYVDGGWETIITKLRDIANHVGVQFLSKKHVLEIEHYEDKQRIYCFDDEVFEVGTVIVTTPPKEACNIIKGAEGTSLQRWSEQSIPVTVTALDIGLRRLPNPTHQFALGLDQPIFFTNQSRAAKLSDDGSIAVSLIKYQNPALEMKHIHEDKGQLESTMDLLHPNWKREVVAQQYLPTIKVVYDFPHINRVETPGPNIPEMPGVYVAGDWAGHDEILADAAVASGKRAALHILKQLESEAVHHGNGAIILEHHHHHH", "soluble on expression in E. coli": "not soluble"}
{"sequence": "MSVVAQVSGEEVTRLLAPIDPAVPAGLFDVEDETYQAIDQEMVKLGGLQEASIDWVYIEDASRQYLSQQCKHLRIVAHLSAAWLRSGCWEQWGCTLALLAGMLECYWEAAHPKPGPKGFLGKRKLVALVIDRLAEALPRLDRFTYTPTHAAAAQAALKRLQQQETVQLDTAALGELERLLGKYSELANGVGEAAVPKAPAATEKPAPLADVIATPVSRMSMGNERETRRAVLSMAELINQQDPYDATGYQLRRFGLWAHIQVAPQVRQGNRTELMAVPLDITRFYEEAIASKAVDPALLQRIEKSLTACPFWIRGSFLAATVATQLAMCEVAEAIRCATARFVQRMPSLQQLCFSDGMVFVDDQCLAWLKGTQGPSGQGATPQEFSGLREELVSQLETGGIEPLLLRLQGLQAGVRAPRERCHTTVIAADLLAARGVSWLAQDLCANVARTMQQTTASAWEPEVFERLQQYAASPVLAVQDKDQEPR", "soluble on expression in E. coli": "not soluble"}
{"sequence": "MSRLGYVMTKASAKNFKVYINGSARGYRNIIINGAKSWNPSPYLNTVTMGNDVKPNFTVSSSNTNKGSVLAVCNTTYYKSNKLIVKNEITLYKGFRSLSNNHKIETVAHEFGHGFGLGHVKTRNAIMLDKGFINKTKPQKDDFNGIKALYKLEHHHHHH", "soluble on expression in E. coli": "soluble"}
{"sequence": "MKFDNKAPIYIQIMDKIKIDIINGTLKPGDKLPSVREMAVKFKVNPNTLQRVYQELERENITYTQRGTGSFVREDSDMIINLKKEMASEVIENFIENIKEFGFGNKDILKIVEDKLNEEEK", "soluble on expression in E. coli": "soluble"}
{"sequence": "SNAMKFELPKLPYAVDALESTISKETIEYHYGKHHQTYVTNLNNLVEGTEHDGRNLEEIVKTSNGGIFNNAAQVFNHTFYWNCLTPNKTEASSQLKAALIETFGSVENFKEQFSKAAIATFGSGWAWLVKNTEGKLEIVTTSNAGCPLTENKKPLLTFDVWEHAYYIDYRNARPKYVEALWDIVNWQFVSEQFAD", "soluble on expression in E. coli": "soluble"}
{"sequence": "MSLSWRNRIQIFLAPDRVDLTGIARGIRPVQQFRQSGVCVQENDSRQQWKAPLRLLEQMIGQMDDRFRRGSELHITLSNHFVRYGVIAPQPSLANPDELMAYAGFQMREIYGERIDDWELSLSTWDPYGGALCAAIARDLQSELIMFARQYDTRFACIEPYLAAALDHWSKRLVEKQVWFVLVETGRFCLVVLSEGAWRCARNQRVVENLQEELLAALEQESIILSPDRSVERVYVFAPELTGQLPVHDLRWQFVRLPDEKHPAPSYFPGVTGMDDSQNH", "soluble on expression in E. coli": "not soluble"}
{"sequence": "MSLTTKDHSLATESPTLQQLGEFAVIDRLVRGRRQPATVLLGPGDDAALVSAGDGRTVVSTDMLVQDSHFRLDWSTPQDVGRKAIAQNAADIEAMGARATAFVVGFGAPAETPAAQASALVDGMWEEAGRIGAGIVGGDLVSCRQWVVSVTAIGDLDGRAPVLRSGAKAGSVLAVVGELGRSAAGYALWCNGIEDFAELRRRHLVPQPPYGHGAAAAAVGAQAMIDVSDGLLADLRHIAEASGVRIDLSAAALAADRDALTAAATALGTDPWPWVLSGGEDHALVACFVGPVPAGWRTIGRVLDGPARVLVDGEEWTGYAGWQSFGEPDNQGSLGEGHHHHHH", "soluble on expression in E. coli": "soluble"}
{"sequence": "MEATLPVLDAKTAALKRRSIRRYRKDPVPEGLLREILEAALRAPSAWNLQPWRIVVVRDPATKRALREAAFGQAHVEEAPVVLVLYADLEDALAHLDEVIHPGVQGERREAQKQAIQRAFAAMGQEARKAWASGQSYILLGYLLLLLEAYGLGSVPMLGFDPERVRAILGLPSRAAIPALVALGYPAEEGYPSHRLPLERVVLWR", "soluble on expression in E. coli": "soluble"}
